This is an account of results in the DeepSol protein solubility set.

This data set in a line: soluble on expression in E. coli; label from the status in PepcDB or PDB records.
For “MSGFSTEERAAPFSLEYRVFLKNEKGQYISPFHDIPIYADKDVFHMVVEVPRWSNAKMEIATKDPLNPIKQDVKKGKLRYVANLFPYKGYIWNYGAIPQTWEDPGHNDKHTGCCGDNDPIDVCEIGSKVCARGEIIGVKVLGILAMIDEGETDWKVIAINVDDPDAANYNDINDVKRLKPGYLEATVDWFRRYKVPDGKPENEFAFNAEFKDKDFAIDIIKSTHDHWKALVTKKTNGKGISCMNTTLSESPFKCDPDAARAIVDALPPPCESACTVPTDVDKWFHHQKN”, the “soluble on expression in E. coli” value is listed as “soluble”.
Regarding “MTKVTREEVEHIANLARLQISPEETEEMANTLESILDFAKQNDSADTEGVEPTYHVLDLQNVLREDKAIKGIPQELALKNAKETEDGQFKVPTIMNEEDA”, the “soluble on expression in E. coli” value is listed as “soluble”.
With “MSLRQLLQKRAMQSPNLEALVGGKKRYSFQQYNERVNQLAHYLLHNGVQRGDRIGILCKNNHPFPSVMMASLKIGAVFIPLNHQLTVYELETIVKEAKLKVLVIDEEFSEVLLNVDAVKEIPYVIQTTKEGFGSFELELQKQPTTEPNVEVHEEDDAIYLFTSGTTGQAKACVIGHKNLHHYFAEIAGQREIPAGERFLSVHPLFHMSGVLSILNCIYHGVTMIFLADSNPAIIWDKIEEEKITTMLAFPAVYSYMLDELNKKERNISTFKVAQSGGTKVPETLIQKYMEKGIYMVQGYGSTEGWVVTSWHPMMGKEKMSSVGKTLKNVEVKIVHPETGHELTTNEVGEIHVKSPYMFKGYWNNEKATKKVVKDNWFNMGDAGMIDDDGFLHIMGRYKDVIIRGGDNVYPDQVEDVIHEIQGVLEVAVVGVPDDFWGEVPRAYIVKDGETTLTEESIIQYCKEKLASYKIPEVVFIDELPKNALGKVLKRELRDVVLVKEGHHHHHH”, the “soluble on expression in E. coli” value is recorded as “soluble”.
As to “MGSDKIHHHHHHMTGDATPPVGLRFAQDKTHEVFMKRYRHTQILALLETRSAIRATEAAEMLGVSVGTIRRDMAELEAGGYLNRTHGGAFAAIEGEAGFMRRTCWNRDKKRVIGQAAAAHISSGSVVFIDGGTTPEAMLPFLVEKTSLTVVTCGLNIALQLLRWPYISTILLGGEVHAESRTVTGTLPVTQLDSFGMRFDMAVIATAGISAEHGATNRMLERLALKQLVLRNSASSILVGDSSKVNCAFLGRVAPLSAFSLCIMDDDLTDEQKAKLSEAGRFEFVPLEGSRRR”, the “soluble on expression in E. coli” value is “not soluble”.
As for “VADRYAVYWNSSNPRFQRGDYHIDVCINDYLDVFCPHYEDSVPEDKTERYVLYMVNFDGYSACDHTSKGFKRWECNRPHSPNGPLKFSEKFQLFTPFSLGFEFRPGREYFYISSAIPDNGRRSCLKLKVFVRPTNSCM”, the “soluble on expression in E. coli” value was “soluble”.
In the case of “MGSDKIHHHHHHMNDFEEYIRQSEPHKREKGYAWQTAIGLQAVDGLKPSEYLKEKARQHIEGDITIDEVKQLVDSYYKSKVARSSSEDRTEEADKVSARITEILSENTFTFSPIEYLAIHRHLFEGIFSHAGQIRDYNITKNEWVLKGATVLYASAGSIRETLEYDFSQEKIFDYKNLNIDEAIRHIARFVSGIWQIHAFGEGNTRTTAVFTIKYLHTFGFNFSNETFANHSWYFRNALVRANYNDLTKGVYATTEFLEKFFRNLILNEQNELKNRNLQIDEIEKEAIQSAKQTDMDIPKCKNCTLDCTLEEIAVLNYLKEKPNATQKEIAQHIGKSERTVKSMTVNLSERGIIERKNGRRNGFWEIKK”, the “soluble on expression in E. coli” value is “not soluble”.
As to “MTVFSGVNKIEFEGTFEGIGKDVVMSQMIRALQKHFPSIRDKNYEFSLFLHIFQRYVLENTSITHDLVCDKIRLPIIDEVVELDDIKNYGLLEGKLLSKLAILKLTGKANPIIGKESPLFEVKNGMSSLDVIVRQTQNLNVRYNSDVPLIFMTSLETESQVSNFLEEHYSSSKVRWKTVVQSSFPQIDKDRLLPIDLQINSHENDFWYPCGTGNLTDTLYFSGELDKLIAQGKEILFVSNVDNLGATGDLNILNFIINEKIEYLVEVVERTANVSNTGVLATYKGKLRSVYYNCLSNESASTCRIVNTNNIWIDLKKLKVLIESNSLNLPIHSSESKITHKNEEIECLQFKTQLVDCIAFFPNSRVLKVSRDRFLPLRTCKDLFLLKSTLYDLDSNGTFNLYPLKFGLLPSIDLGDEFATYETFKIGVPDIPNILELEHLTVMGNVFFGRNITLKGTVIIICDENDVITVPDGSILENVTIWHKSQLEDMNGY”, the “soluble on expression in E. coli” value was “not soluble”.
In the case of “MGSDKIHHHHHHMSKNIKTPTNQKVLTNVAVVRMKKTGKRFEIACYKNKVVNWRNKSEKDIDEVLQTHTVFSNVSKGQLSKKEELIAAFGIEDQLEIYSRQRRLASVGKRASGGFRSIAERGSFFLLKNVSQLIASMVVNPETKRPVPPSVIDKALQEMHFSLKPNRSSKQQALDAIPKLRETLKIERAKMKIRVAIPTKEAKSVHTKLKTLFSDVEVDDWQDGSLEMVGLIEPGSFRALDDLVRNETKGHGRLEILSLKDVVEGELQIS”, the “soluble on expression in E. coli” value is reported as “not soluble”.
On to “MWTNTFQEGLKIVGENISLSLPDGRQELFRLTDGAISSDATTGTLSKDQAGWRYDYRDGTSSLFDVQGRLIQRKVRGQVITITYPNLSTTKAKDGFGNTLTVSWNATKQPYLVDYNGSLKVEYLYDGGARLVSKKTTSQGLNRTRKYLYADSGNAGLMVGIIDEQGTRYATWTYDNQGRAISSEHANGAEKVSLAYNDDGSTTVTNEYGKQATYRFQVIQGIKRIVAIEGQPSPNCPSSNSTFTYDDQGLLTSKRDNNGNLTTYQYNARGLETSRTEAAGTAQARTITTDWHPTLFLPVQVSEPGRITRYQYDAEGRKTGETVTTR”, for which the “soluble on expression in E. coli” value was “not soluble”.
The result for “MAEVRARVDFKVGAKSNIDAEILSFRGLKTDKEHVAVIFKQADQTQDTPLVRMHSECLTGDVFHSSRCDCGEQLEETIQRMGESGGVILYLRQEGRGIGLYNKIDAYRLQSQGMNTYEANNHLGFDDDLRDFTEAAQMLEALGIKKIRLVTNNPKKIRELAEYGIEIVEVVNTSAHIKDGNENYLRAKVSHGKHNLKVLEHHHHHH” reads “soluble”; that for “MFSYTDTILSIMQRIEVYNEIFKAISKEVQEYGCNQAAHRRGRDTYMFCRNNVNRFFTEEMMFRKNLEPYYDKEATKILLEGLDTYKEGVFFWLEALSESCQVTDELKYQLGIRQKESSYLLINQACKEACEGIQSAHSVHKM”, “not soluble”; that for “SLTTEVVMENVTAFWEEGFGELFEKAKQNNNNRKTSNGDDSLSFSNFSLLGTPVLKDINFKIERGQLLAVAGSTGAGKTSLLMMIMGELEPSEGKIKHSGRISFCSQFSWIMPGTIKENIIFGVSYDEYRYRSVIKACQLEEDISKFAEKDNIVLGEGGITLSGGQRARISLARAVYKDADLYLLDSPFGYLDVLTEKEIFESCVCKLMANKTRILVTSKMEHLKKADKILILHEGSSYFYGTFSELQNLQPDFSSKLMGGGGGSGGGGSGGGGSDDIWPSGGQMTVKDLTAKYTEGGNAILENISFSISPGQRVGLLGRTGSGKSTLLSAFLRLLNTEGEIQIDGVSWDSITLQQWRKAFGVIPQKVFIFSGTFRKNLDPYEQWSDQEIWKVADEVGLRSVIEQFPGKLDFVLVDGGCVLSHGHKQLMCLARSVLSKAKILLLDQPSAHLDPVTYQIIRRTLKQAFADCTVILCEHRIEAMLECQQFLVIEENKVRQYDSIQKLLNERSLFRQAISPSDR”, “soluble”.
The result for “MSLNEWALETDAEFLVYNALRETGRLLISPDAITKQKARHVMRQVIARYPLGSKHDKLWLAAVEMLHYYAPEVLQQLGIDLDAAKRDLAARILPNRFECQGPAIIRSQDLSDAQAAQACDVLDKKEQDFHQVANTGLAPVADDYNTRVEVVVFANNSSYVNYSSFLFGNTTDNGGQYLEGNPADQNNQARFVAYRYANDADLSILNLEHEYTHYLDARFNQYGSFSDNLAHGHIVWWLEGFAEYMHYKQGYQAAVKLISQGKLSLSDVFATTYSNDTNRIYRWGYLAVRFMLEKHPQDVESLLALSRTGQFDQWAQSVKLLGERYNTEFSAWLDTLQRDNEGHHHHHH” reads “not soluble”; that for “DSDLYAELRCLCIKTTSGIHPKNIQSLEVIGKGTHCNQVEVIATLKDGRKICLDPDAPRIKKIVQKKLAGDESAD”, “soluble”; that for “MKRLADVKISTLDLVPVRHDKGPADSLRNSLNLAQHVEKLGYNRFWVAEHHNMDGIASSATSVLLAYLAGGTSTIRVGAGGIMLPNHAPLVVAEQFGTLASLYPGRIDLGLGRAPGSDQMTARALRRERSGSAEDFPDDVTELMEYLGPRTPDQKVIAVPGSDTNVPIWLLGSSLFSAQLAGMRGLPYAFASHFAPRYMHEAIRVYRNHFQPSAVLDKPYVMLGVPLSAADTDEHAEYLATSVYQRILALMRGHSLMQRPPVESMDGLWLPHEREAVASFLGLAMVGGPDKIRAKLDVLLEQTDADELIFTCDMYEHEDRLRSYEILAQVAQG”, “not soluble”.
Regarding “MLAYPHLFTPLDLGFTTLKNRILMGSMHTGLEELPDGPQRLAAFYAERAAGGVGLIVTGGIAPNMKGGVYQGASVLNDAAQIPHHQVVTEAVHQAGGKIALQILHAGRYSYQKHPVAPSALQAPINPFVPQALSHEEILQTIADFAHCAQLAKQAGYDGVEIMGSEGYLINQFLTARTNQRDDEWGGDFTHRMRFAVEIVRAVRQATGHDFILIYRLSMLDLVEEGSNWVEIEQLAQAVEQAGATVINTGIGWHEARIPTIATMVPRAGFSWVTRKLMGKVNIPLITTNRINDPAVAEQVLADGCADMVSMARPFLADAAFVQKAAQGRADEINTCIGCNQACLDQIFDGKLTSCLVNPRACRETEMPELPTDAPKRLAVVGAGPAGLAFAVTAARRGHQVTLFDAAAEIGGQFNIAKQIPGKEEFYETLRYFRRQLVLNGVTLQLNTLVQVKQLAEFDEVILACGIQPRLPCINGIDHPKVLTYLDVLRDKKPVGQRVAIIGAGGIGFDTAEYLSQSGDSPRFDSTAFSTEWGIDQDLAHRGGLSPAGAKVPPSPRQIFLLQRKASKVGEGLGKTTGWIHRTSLAMRGVKMLNSVSYEAIDDKGLHIIRAEQACCLPVDTIIICAGQEPRRELHQPLLDMGKTVYLIGGADKAVELDARRAIDQGTRLALAI”, the “soluble on expression in E. coli” value is “not soluble”.
As for “MGSDKIHHHHHHMMKILFIYRHPSMGFSIGKVFRPIEEEMKKYAEVDSIYMPTSQYSLNSIWQNIKTTRKAINSKKYDIVHITGTEHYLIPFLLGEKVVVTVHDLGHYFDIHGLKKILFWIMQIFSLKFAKAITCISNFTVQELKKTISIKNNKISVIFNEVDKNFSFKEKEFNKDYPVILHIGTRPHKNLSRTIKALNGIKCKLRIIGEITNKELDLLQKYKTDYSFASNLSDNDLLKEYQNADIINFPSCHEGFGMPIIEGQAVGRIVVTSNIEPMISVANNGAAICDPYNIESIRNTYIRVINDFQYRNDIILKGIDNVKKYSIETVAKQYFELYKTL”, the “soluble on expression in E. coli” value is given as “not soluble”.
As for “MLHTLHRSPWLTDFAALLRLLSEGDELLLLQDGVTAAVDGNRYLESLRNAPIKVYALNEDLIARGLTGQISNDIILIDYTDFVRLTVKHPSQMAW”, the “soluble on expression in E. coli” value is “soluble”.
“MGVKRKKMGKVAGFTEWTAEDLEAFRARWPIGTAQRLALELYQWTGARCVDVIRLGPQMVGRDGVLTYVQQKTGNPAHVPWTCPAFGLEEQRADLMRCLPVGSPVYMLTEYGKPRTQKGVSQWFSAAAREAGLESRTAHGLRKYRMNALAEHGASVLVMQSWVGHTTLLEVQEYTRRADRRRVISGGHAAALEHHHHHH”: the “soluble on expression in E. coli” value is “not soluble”.
The result for “MKTKPQAPHVDFYEKSELLHFLDCASKHENPQAFMFFRLLAFTGLRRGEALALQWSDINFETNELTVNKTQAVGKRWRTIIQTPKTNTSYRTIVLDPDTAQWLHKWKMTQARQCFELGFNANDPSQLVFTNQQNKLMSPSTVNYFNWSICKKYGLRHIKIHAFRHTFCTLAFEAHAGINEVSKTLGHADLKITEQIYLHVTKKQKNETASKLARYMSELLEHHHHHH” reads “soluble”.
